Our source for the median [+ligand]/median [w/o ligand]*100 values is patent US20230272113A1.

The assay deals with human FLT3 on transfected CHO cells (human) (UniProt P36888). Briefly: FACS, scFv on CHO-human FLT3 cells pre-incubated with FLT3 ligand (competitor).

Where a chain is given by its changes, count along the chain named. Where only a bound is given, the exact number is not on record here.

B1: FL-34 (scFv)
scFv: QVTLKESGPALVKPTETLTLTCTFSGFSLRNARMGVSWIRQPPGKALEWLAHIFWNDEKSYSTSLKSRLTISKDTSKSQVVLTMTNMDPVDTATYYCARIPYYGSGSYNYGMDVWGQGTTVTVSSGGGGSGGGGSGGGGSDIQMTQSPSSLSASVGDRVTITCRASQGIRNDLGWYQQKPGKAPKRLIYAASSLQSGVPSRFSGSGSGTEFTLTISSLQPEDFATYYCLQHNSYPLTFGGGTKLEIK
In turn, B1 yielded a median [+ligand]/median [w/o ligand]*100 of over 75%.

B2: FL-36 (scFv)
scFv: QVTLKESGPTLVKPTETLTLTCTFSGFSLRYARMGVSWIRQPPGKALEWLAHIFSNDEKSYSTSLKSRLTISKDTSKSQVVLTLTNMDPVDTATYFCARMPEYSSGWSGAFDIWGQGTMVTVSSGGGGSGGGGSGGGGSDIQMTQSPSSLSASVGDRVTITCRASQDIRNDLAWYQQKPGKAPKRLIYAASSLQSGVPSRFSGSGSGTEFTLTISSLQPEDFATYYCLQHNSYPLTFGGGTKLEIK
The molecule B2 registered a median [+ligand]/median [w/o ligand]*100 of over 75%.

B3: FL-41 (scFv)
scFv: QVTLKESGPVLVKPTQTLTLTCTFSGFSLSNARMGVSWIRQPPGKCLEWLAHIFSNDEKSFSTSLKNRLTISKDTSKSQVVLTMTNMDPVDTATYYCARMVGYGSGWYAYFDYWGQGTQVTVSSGGGGSGGGGSGGGGSDIQMTQSPSSLSASVGDRVTITCRASQSISSYLNWYQQKPGKAPKLLIYAASSLQSGVPSRFSGSGSGTDFTLTISSLQPEDFATYYCLQHNSYPLTFGCGTKVEIK
For the molecule B3, the median [+ligand]/median [w/o ligand]*100 was over 75%.

B4: FL-35 (scFv)
scFv: QVTLKESGPALVKPTETLTLTCTVSGFSLNNARMGVSWIRQPPGKALEWLAHIFSNDEKSYSTSLKNRLTISKDSSKTQVVLTMTNVDPVDTATYYCARIVGYGTGWYGFFDYWGQGTQVTVSSGGGGSGGGGSGGGGSDIQMTQSPSSLSASVGDRVTITCRASQDIRDDLVWYQQKPGKAPKRLIYGTSTLQSGVPSRFSGSGSGTEFTLTISSLQPEDFATYYCLQHHSYPLTFGGGTKLEIK
On to B4, for which the median [+ligand]/median [w/o ligand]*100 is over 75%.

B5: FL-33 (scFv)
scFv: QVTLKESGPVLVKPTETLTLTCTVSGFSLRNARMGVSWIRQPPGKTLEWLAHIFSNDEKSYSTSLKSRLTISKDTSKGQVVLTMTNMDPVDTATYYCARIVGYGSGWYGYFDYWGQGTLVTVSSGGGGSGGGGSGGGGSDIQMTQSPSSLSASVGDRVTITCRASQGIGDDLGWYQQIPGKAPKRLIYATSVLQSGVPSRFSGSGSGTEFTLTISSLQPEDFATYYCLQHNSYPLTFGGGTKLEIK
With B5, the median [+ligand]/median [w/o ligand]*100 is over 75%.

B6: FL-24 (scFv)
scFv: QVTLKESGPALVKPTETLTLTCTVSGFSLRNVRMGVSWIRQPPGKALEWLAHIFSNDEKSYSTSLKSRLTISKDTSKSQVVLILTNMDPVDTATYFCARMPEYSSGWSGAFDIWGQGTMVTVSSGGGGSGGGGSGGGGSDIQMTQSPSSLSASVGDRVTITCRASQDIRDDLVWYQQKPGKAPKRLIYAASTLQSGVPSRFSGSGSGTEFTLTISSLQPEDFATYYCLQHHSYPWTFGQGTKVEIK
Consider B6, for which the median [+ligand]/median [w/o ligand]*100 is over 75%.

B7: FL-25 (scFv)
scFv: B6 scFv with L29F, V32A, I83T, V173G, S202T, S204G, H231N, Y233F, W235F, Q239G
Take B7: the median [+ligand]/median [w/o ligand]*100 was over 75%.

B8: FL-29 (scFv)
scFv: QVTLKESGPALVKPTQTLTLTCTFSGFSLSNARMGVSWIRQPPGKALEWLAHIFSNDEKSYRTSLKSRLTISKDTSKSQVVLTMTNMDPVDTATYYCARIVGYGSGWYAYFDYWGQGTLVTVSSGGGGSGGGGSGGGGSDIQMTQSPSSLSASVGDRVTITCRASQGIRNDLGWYQQKPGKAPKRLIYAASSLQSGVPSRFSGSGSGTEFTLTISSLQPEDFATYYCLQHNSYPLTFGGGTKVEIK
For B8, the median [+ligand]/median [w/o ligand]*100 is over 75%.

B9: FL-31 (scFv)
scFv: B8 scFv with R62S, N86D, V90E, S105T, A109G, Y110F, T118I, A164T
In turn, B9 yielded a median [+ligand]/median [w/o ligand]*100 of over 75%.

B10: FL-42 (scFv)
scFv: QVTLKESGPALVKPTETLTLTCTLSGFSLNNARMAVSWIRQPPGKCLEWLAHIFSNDEKSYSTSLKSRLTISKDTSKSQVVLTMTNMDPEDTATYYCARIVGYGTGWYGFFDYWGQGILVTVSSGGGGSGGGGSGGGGSDIQMTQSPSSLSASVGDRVTITCRASQGIRNDLAWYQQKPGKAPKRLIYAASSLQSGVPSRFSGSGSGTEFTLTISSLQPEDFATYYCLQHNSYPLTFGCGTKVEIK
In the case of B10, the median [+ligand]/median [w/o ligand]*100 was over 75%.

B11: FL-39 (scFv)
scFv: QVTLKESGPTLVKPTETLTLTCTLSGFSLNNARMGVSWIRQPPGKCLEWLAHIFSNDEKSYSTSLKNRLTISKDSSKTQVVLTMTNVDPVDTATYYCARIVGYGSGWYGFFDYWGQGTLVTVSSGGGGSGGGGSGGGGSDIQMTQSPSSLSASVGDRVTITCRASQGIRNDLGWYQQKPGKAPKRLIYAASTLQSGVPSRFSGSGSGTEFTLTISSLQPEDFATYYCLQHNSYPLTFGCGTKVEIK
As to B11, the median [+ligand]/median [w/o ligand]*100 was over 75%.

B12: FL-40 (scFv)
scFv: QVTLKESGPTLVKPTETLTLTCTVSGFSLSNARMGVSWIRQPPGKCLEWLANIFSNDEKSYSTSLKSRLTISKGTSKSQVVLTMTNVNPVDTGTYYCARIVGYGSGWYGYFDYWGQGTLVTVSSGGGGSGGGGSGGGGSDIQMTQSPSSLSASVGDRVTITCRASQDIRNDLGWYQQKPGKAPKRLIYATSIRQSGVPSRFTGSGSGTEFTLTISGLQPEDFATYFCLQHNSFPLTFGCGTKVEIK
With B12, the median [+ligand]/median [w/o ligand]*100 is over 75%.

B13: FL-22 (scFv)
scFv: QVTLKESGPVLVKPTETLTLTCTVSGFSFRNARMGVSWIRQPPGKALEWLAHIFSNDEKSYSTSLKSRLTISKDTSKSQVVLTLTNMDPVDTATYFCARMPEYSSGWSGAFDIWGQGTMVTVSSGGGGSGGGGSGGGGSDIQMTQSPSSLSASVGDRVTITCRASQGISNYLAWYQQKPGKAPKRLIYAASTLQSGVPSRFSGSGSGTEFTLTISSLQPEDFATYYCLQHNTYPWTFGQGTKVEIK
As to B13, the median [+ligand]/median [w/o ligand]*100 is over 75%.

B14: FL-37 (scFv)
scFv: B2 scFv with T10V, F24V, Y31N, A32I, R33K, R169S, D171Y, Y233F
In turn, B14 returned a median [+ligand]/median [w/o ligand]*100 of over 75%.

B15: FL-28 (scFv)
scFv: B13 scFv with S169G, N170D, Y171D, A173G, K178I, A190T, T192V, T232S, W235L, Q239G
In turn, B15 gave a median [+ligand]/median [w/o ligand]*100 of over 75%.

B16: FL-38 (scFv)
scFv: B2 scFv with T10V, F24V, L29F, Y31N, M119L, D167G, A173G
Regarding B16, the median [+ligand]/median [w/o ligand]*100 is over 75%.

B17: FL-23 (scFv)
scFv: B6 scFv with L29F, V32A, I83T, R169G, D170Y, V173G, T213I, H231N, Y233F
As for B17, the median [+ligand]/median [w/o ligand]*100 is over 75%.

B18: FL-27 (scFv)
scFv: B13 scFv with A164T, S169R, Y171D, A173V, Y226F, N231Y, T232S, W235L, Q239G
On to B18, for which the median [+ligand]/median [w/o ligand]*100 was over 75%.

B19: FL-26 (scFv)
scFv: B13 scFv with S169R, Y171D, A173V, A189G, A190T, T232S, W235L, Q239G
In turn, B19 displayed a median [+ligand]/median [w/o ligand]*100 of over 75%.

B20: FL-30 (scFv)
scFv: QVTLKESGPVLVKPTQTLTLTCTFSGFSLSNARMGVSWIRQPPGKALEWLALIYWNDDKRYSPSLKSRLTITKDTSKNQVVLTMTNMDPVDTATYYCARMVGYGSGWYAYFDYWGQGTLVTVSSGGGGSGGGGSGGGGSDIQMTQSPSSLSASVGDRVTITCRASQGIRNDLGWYQQKPGKAPKRLIYAASSLQSGVPSRFSGSGSGTEFTLTISSLQPEDFATYYCLQHNSYPLTFGGGTKVEIK
On to B20, for which the median [+ligand]/median [w/o ligand]*100 is over 75%.

B21: FL-32 (scFv)
scFv: QVTLKESGPTLVKPTETLTLTCTVSGFSFRNARMGVSWIRQPPGKALEWLAHIFSNDEKSYSTSLKSRLTISKDTSKGQVVLTMTNMDPVDTATYYCARIVGYGSGWYGYFDYWGQGTLVTVSSGGGGSGGGGSGGGGSDIQMTQSPSSLSASVGDRVTITCRASQGIRNDLVWYQQKPGKAPKRLIYAASTLQSGVPSRFSGSGSGTEFILTISSLQPEDFATYFCLQHYSYPLTFGGGTKLEIK
In turn, B21 registered a median [+ligand]/median [w/o ligand]*100 of over 75%.
